US20100260765A1 (AstraZeneca / MedImmune, published 2010)
Blank lines part the entries; values can stand above or below the binder they belong to.

What was measured:
Test in all cases: cell-based or functional assay
KDR [1] = target: T1, KDR (human, UniProt P35968 20-1356)
KDR [2] = target: T1, KDR; remark: listed apart in the source
KDR [3] = target: T1, KDR; remark: listed apart in the source
KDR [4] = target: T1, KDR; remark: listed apart in the source
KDR [5] = target: T1, KDR; remark: listed apart in the source

T1 sequence (P35968 20-1356): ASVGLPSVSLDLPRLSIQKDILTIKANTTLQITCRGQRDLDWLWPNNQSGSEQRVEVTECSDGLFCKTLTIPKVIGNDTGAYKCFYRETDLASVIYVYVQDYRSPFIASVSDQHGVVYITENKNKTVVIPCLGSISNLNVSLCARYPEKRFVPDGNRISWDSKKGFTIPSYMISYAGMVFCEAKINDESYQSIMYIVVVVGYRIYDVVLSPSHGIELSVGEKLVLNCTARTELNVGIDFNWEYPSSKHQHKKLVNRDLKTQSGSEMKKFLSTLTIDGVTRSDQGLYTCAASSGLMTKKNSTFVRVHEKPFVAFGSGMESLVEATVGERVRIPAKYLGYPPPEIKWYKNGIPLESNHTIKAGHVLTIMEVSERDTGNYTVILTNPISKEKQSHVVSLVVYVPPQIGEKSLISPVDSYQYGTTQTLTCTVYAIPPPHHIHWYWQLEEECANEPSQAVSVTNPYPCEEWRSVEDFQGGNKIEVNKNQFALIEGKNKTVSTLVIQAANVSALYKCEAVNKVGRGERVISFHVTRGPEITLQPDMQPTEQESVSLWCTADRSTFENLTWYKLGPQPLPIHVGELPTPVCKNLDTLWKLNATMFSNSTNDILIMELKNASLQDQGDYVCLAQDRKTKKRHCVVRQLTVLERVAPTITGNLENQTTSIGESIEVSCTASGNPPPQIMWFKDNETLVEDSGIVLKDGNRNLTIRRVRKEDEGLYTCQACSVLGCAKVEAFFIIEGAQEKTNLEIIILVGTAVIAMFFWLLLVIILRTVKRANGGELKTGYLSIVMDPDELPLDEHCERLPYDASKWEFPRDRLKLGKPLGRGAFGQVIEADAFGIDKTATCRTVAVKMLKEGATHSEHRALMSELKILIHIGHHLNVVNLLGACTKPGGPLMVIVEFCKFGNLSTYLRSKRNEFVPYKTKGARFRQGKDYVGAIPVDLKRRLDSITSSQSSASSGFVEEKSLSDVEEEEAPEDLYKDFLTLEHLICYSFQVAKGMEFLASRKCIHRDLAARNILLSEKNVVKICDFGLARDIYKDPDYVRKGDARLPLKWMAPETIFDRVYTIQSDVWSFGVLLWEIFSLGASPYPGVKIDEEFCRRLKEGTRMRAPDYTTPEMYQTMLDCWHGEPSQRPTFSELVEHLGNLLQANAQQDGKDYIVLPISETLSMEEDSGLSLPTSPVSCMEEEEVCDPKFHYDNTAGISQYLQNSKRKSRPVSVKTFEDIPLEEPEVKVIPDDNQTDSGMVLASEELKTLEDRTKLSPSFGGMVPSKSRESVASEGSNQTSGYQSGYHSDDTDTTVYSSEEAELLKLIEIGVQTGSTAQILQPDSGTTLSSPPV

B1: 29A3 (antibody, V domains shown)
VH: QVQLQESGPGLVKPSETLSLTCTVSGGSISSYFWSWIRQPAGKGLEWIGRIYFSGRTNYNPSLKSRVTMSVETSKNQFSLKLNSVTAADTAVYYCARDGGWNYDVAFDYWGQGTLVTVSS
VL: QAVLTQPSSLSASPGASASLTCTLRSGINVGTYRIYWYQQKPGSPPQYLLRYKSDSDQLQGSGVPSRFSGSKDASANAGILLISGLQSEDEADYYCMVWHSNTWVFGGGTKLTVL
Activity at 133 nM (% Inhibition), 24-hour Pre-incubation at 37° C., Average (KDR [1]): 11% | Activity at 133 nM (% Inhibition), 24-hour Pre-incubation at 37° C., N = 1 (KDR [1]): 7% | Activity at 133 nM (% Inhibition), 24-hour Pre-incubation at 37° C., N = 2 (KDR [1]): 15% | Activity at 133 nM (% Inhibition), 1-hour Pre-incubation at 4° C., Average (KDR [2]): 23% | Activity at 133 nM (% Inhibition), 1-hour Pre-incubation at 4° C., N = 1 (KDR [2]): 25% | Activity at 133 nM (% Inhibition), 1-hour Pre-incubation at 4° C., N = 2 (KDR [2]): 20% | Activity at 133 nM Antibody Concentration (% Survival Inhibition), Average (KDR [3]): -111% | Activity at 133 nM Antibody Concentration (% Survival Inhibition), N = 1 (KDR [3]): -65% | Activity at 133 nM Antibody Concentration (% Survival Inhibition), N = 2 (KDR [3]): -156% | % of Max VEGF KDR pTyr Activity (at 133 nM antibody concentration), Average (KDR [4]): 16% | % of Max VEGF KDR pTyr Activity (at 133 nM antibody concentration), N = 1 (KDR [4]): 15% | % of Max VEGF KDR pTyr Activity (at 133 nM antibody concentration), N = 2 (KDR [4]): 17% | % Inhibition of VEGF165-mediated 6-keto Prostaglandin F1α release at 133 nM Antibody Concentration, Average (KDR [5]): 13% | % Inhibition of VEGF165-mediated 6-keto Prostaglandin F1α release at 133 nM Antibody Concentration, N = 1 (KDR [5]): 11% | % Inhibition of VEGF165-mediated 6-keto Prostaglandin F1α release at 133 nM Antibody Concentration, N = 2 (KDR [5]): 16%

B4: 21H6 (antibody, V domains shown)
VH: QVQLVESGGGLVKPGGSLRLSCAASGFTFSDYYMSWIRQAPGKGLEWVSYISNSGITIYYADSVKGRFTISRDNAKNSLYLQMNSLRAGDTAVYYCAREEWYSSRWYRNFDYWGQGTLVTVSS
VL: DIQMTQFSSSLSASVGDRVTITCRASQSISRYLNWYQQKPGKAPKLLIYAASSLQSGVPSRFNGSGSGTDFTLTISSLQPEDFATYYCQQSYSAPLTFGGGTKVEIK
Activity at 133 nM (% Inhibition), 24-hour Pre-incubation at 37° C., Average (KDR [1]): 27% | Activity at 133 nM (% Inhibition), 24-hour Pre-incubation at 37° C., N = 1 (KDR [1]): 35% | Activity at 133 nM (% Inhibition), 24-hour Pre-incubation at 37° C., N = 2 (KDR [1]): 19% | Activity at 133 nM (% Inhibition), 1-hour Pre-incubation at 4° C., Average (KDR [2]): 74% | Activity at 133 nM (% Inhibition), 1-hour Pre-incubation at 4° C., N = 1 (KDR [2]): 74% | Activity at 133 nM (% Inhibition), 1-hour Pre-incubation at 4° C., N = 2 (KDR [2]): 75% | Activity at 133 nM Antibody Concentration (% Survival Inhibition), Average (KDR [3]): 91% | Activity at 133 nM Antibody Concentration (% Survival Inhibition), N = 1 (KDR [3]): 105% | Activity at 133 nM Antibody Concentration (% Survival Inhibition), N = 2 (KDR [3]): 77% | % of Max VEGF KDR pTyr Activity (at 133 nM antibody concentration), Average (KDR [4]): 11% | % of Max VEGF KDR pTyr Activity (at 133 nM antibody concentration), N = 1 (KDR [4]): 10% | % of Max VEGF KDR pTyr Activity (at 133 nM antibody concentration), N = 2 (KDR [4]): 12% | % Inhibition of VEGF165-mediated 6-keto Prostaglandin F1α release at 133 nM Antibody Concentration, Average (KDR [5]): 100% | % Inhibition of VEGF165-mediated 6-keto Prostaglandin F1α release at 133 nM Antibody Concentration, N = 1 (KDR [5]): 104% | % Inhibition of VEGF165-mediated 6-keto Prostaglandin F1α release at 133 nM Antibody Concentration, N = 2 (KDR [5]): 96%

Further lines, with some results ahead:

Activity at 133 nM (% Inhibition), 24-hour Pre-incubation at 37° C., Average (KDR [1]): 38% | Activity at 133 nM (% Inhibition), 24-hour Pre-incubation at 37° C., N = 1 (KDR [1]): 39% | Activity at 133 nM (% Inhibition), 24-hour Pre-incubation at 37° C., N = 2 (KDR [1]): 37% | Activity at 133 nM (% Inhibition), 1-hour Pre-incubation at 4° C., Average (KDR [2]): 27% | Activity at 133 nM (% Inhibition), 1-hour Pre-incubation at 4° C., N = 1 (KDR [2]): 26% | Activity at 133 nM (% Inhibition), 1-hour Pre-incubation at 4° C., N = 2 (KDR [2]): 28% | % of Max VEGF KDR pTyr Activity (at 133 nM antibody concentration), Average (KDR [4]): 12% | % of Max VEGF KDR pTyr Activity (at 133 nM antibody concentration), N = 1 (KDR [4]): 12% | % of Max VEGF KDR pTyr Activity (at 133 nM antibody concentration), N = 2 (KDR [4]): 12% | % Inhibition of VEGF165-mediated 6-keto Prostaglandin F1α release at 133 nM Antibody Concentration, Average (KDR [5]): 10% | % Inhibition of VEGF165-mediated 6-keto Prostaglandin F1α release at 133 nM Antibody Concentration, N = 1 (KDR [5]): 4% | % Inhibition of VEGF165-mediated 6-keto Prostaglandin F1α release at 133 nM Antibody Concentration, N = 2 (KDR [5]): 15%
B2: 30D7 (antibody, V domains shown)
VH: QVPLVESGGGVVQPGRSLRLSCAASGFTFSSYGMHWVRQAPGKGLEWVAVIWYDGSNKYYADSVKGRFTISRDNSKNTLYLQMNSLRAEDTAVYYCARGVTMVRGVIIARYYYGLDVWGQGTTVTVSS
VL: DIVMTQTPLSSPVTLGQPASISCRSSQSLVHSDGNTYLSWLQQRPGQPPRLLIYKISNRFFGVPDRFSGSGAGTDFTLKIGRVEAEDVGLYYCMQSTQFPLTFGGGTKVEIK
Activity at 133 nM Antibody Concentration (% Survival Inhibition), Average (KDR [3]): -51% | Activity at 133 nM Antibody Concentration (% Survival Inhibition), N = 1 (KDR [3]): -9% | Activity at 133 nM Antibody Concentration (% Survival Inhibition), N = 2 (KDR [3]): -92%

Activity at 133 nM (% Inhibition), 24-hour Pre-incubation at 37° C., Average (KDR [1]): 55% | Activity at 133 nM (% Inhibition), 24-hour Pre-incubation at 37° C., N = 1 (KDR [1]): 60% | Activity at 133 nM (% Inhibition), 24-hour Pre-incubation at 37° C., N = 2 (KDR [1]): 51% | Activity at 133 nM (% Inhibition), 1-hour Pre-incubation at 4° C., Average (KDR [2]): 84% | Activity at 133 nM (% Inhibition), 1-hour Pre-incubation at 4° C., N = 1 (KDR [2]): 84% | Activity at 133 nM (% Inhibition), 1-hour Pre-incubation at 4° C., N = 2 (KDR [2]): 85% | % of Max VEGF KDR pTyr Activity (at 133 nM antibody concentration), Average (KDR [4]): 13% | % of Max VEGF KDR pTyr Activity (at 133 nM antibody concentration), N = 1 (KDR [4]): 14% | % of Max VEGF KDR pTyr Activity (at 133 nM antibody concentration), N = 2 (KDR [4]): 13% | % Inhibition of VEGF165-mediated 6-keto Prostaglandin F1α release at 133 nM Antibody Concentration, Average (KDR [5]): 79% | % Inhibition of VEGF165-mediated 6-keto Prostaglandin F1α release at 133 nM Antibody Concentration, N = 1 (KDR [5]): 68% | % Inhibition of VEGF165-mediated 6-keto Prostaglandin F1α release at 133 nM Antibody Concentration, N = 2 (KDR [5]): 89%
B3: 30F6 (antibody, V domains shown)
VH: QVQLVESGGGVVQPGRSLRLSCAASGFTFSTYGMHWVRQAPGKGLEWVAVIWYDGSNKYYADSVKGRFTISRDNSKNTLYLQMNSLRAEDTAVYYCACSYWNDDYYYGMDVWGQGTTVTVSS
VL: DIQMTQSPSSLSASVGDRVIITCRASQNISSYLIWYQQKPGKAPNLLIHTTSSLQRGVPSRFSGSGSGTDFTLTISSLQPEDFATYYCQQSYSAPLTFGGGTKVEIK
Activity at 133 nM Antibody Concentration (% Survival Inhibition), Average (KDR [3]): 82% | Activity at 133 nM Antibody Concentration (% Survival Inhibition), N = 1 (KDR [3]): 91% | Activity at 133 nM Antibody Concentration (% Survival Inhibition), N = 2 (KDR [3]): 74%
